{"source": "patent US20180037663A1", "about": "(OHIO STATE INNOVATION FOUNDATION, published 2018)", "binders": {"B1": {"name": "3E8.scFv (scFv)", "scFv": "GSSGDIVMTQSPDSLAVSLGERATINCKSSQSVLYSSNNKNYLAWYQQKPGQPPKLLIYWASTRESGVPDRFSGSGSGTDFTLTISSLQAEDVAVYYCQQYYSYPLTFGGGTKVEIKLSADDAKKDAAKKDDAKKDDAKKDLQVQLVQSGAEVKKPGASVKVSCKASGYTFTDHAIHWVRQAPGQRLEWMGYFSPGNDDFKYSQKFQGRVTITADKSASTAYMELSSLRSEDTAVYYCARSWIMQYWGQGTLVTVSS", "notes": "Monomeric scFv purified from the E. coli periplasm; Labelled at lysines with fluorescein (dot blots) or biotin (HRP dot blot, IHC); also called scFv of 3E8; single chain variable fragment of 3E8"}}, "target": "T1, bovine submaxillary mucin (bovine)", "T1 construct": "Used as surrogate antigen for TAG-72; also called BSM", "assay": "binding study of FIG. 14 (inhibition dot blot), compared with 3E8.IgG"}
{"binder": "B1", "values": [{"measurement": "fold worse binder than 3E8.IgG", "value": "~16", "unit": "fold"}]}
